Values of other authors, collected in paper PMC6085760.

Target: Amyloid-β (Homo sapiens) (UniProt P05067)
Sequence (P05067 672-711): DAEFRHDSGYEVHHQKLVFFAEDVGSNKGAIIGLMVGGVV

Kd: 156 µM
Substance: LPFFD peptide
